Assay results taken from publication PMC8863895.
Where two headings read alike, the source gives them in different places.

Assays:
C3b (human) = test: ELISA; decay acceleration assay: 250 ng C3b immobilised on Maxisorp; C3bBb formed with 400 ng Factor B and 25 ng Factor D, 2 h 37 °C; increasing concentrations of regulator, 40 min 37 °C; Bb remaining bound to C3b detected with anti-factor B polyclonal antibody
complement C5 [1] = test: ELISA; 5 µg/mL C3b or C5 immobilised on Maxisorp plates at 4 °C overnight; increasing concentrations of regulator (0.195-50 nM) in sample buffer (2% BSA in TBS, 0.05% Tween-20); detected with anti-His-tag antibodies; absorbance normalised to the highest concentration; IC50 from a 4PL nonlinear regression
complement C3b [2] = target: complement C3b (UniProt P01024); test: as above
complement C5 [3] = test: as above; remark: listed apart in the source
complement C3b [4] = target: complement C3b (UniProt P01024); test: as above; remark: listed apart in the source

Chain of human factor H, plasma-derived (hFH) (P08603 19-1231): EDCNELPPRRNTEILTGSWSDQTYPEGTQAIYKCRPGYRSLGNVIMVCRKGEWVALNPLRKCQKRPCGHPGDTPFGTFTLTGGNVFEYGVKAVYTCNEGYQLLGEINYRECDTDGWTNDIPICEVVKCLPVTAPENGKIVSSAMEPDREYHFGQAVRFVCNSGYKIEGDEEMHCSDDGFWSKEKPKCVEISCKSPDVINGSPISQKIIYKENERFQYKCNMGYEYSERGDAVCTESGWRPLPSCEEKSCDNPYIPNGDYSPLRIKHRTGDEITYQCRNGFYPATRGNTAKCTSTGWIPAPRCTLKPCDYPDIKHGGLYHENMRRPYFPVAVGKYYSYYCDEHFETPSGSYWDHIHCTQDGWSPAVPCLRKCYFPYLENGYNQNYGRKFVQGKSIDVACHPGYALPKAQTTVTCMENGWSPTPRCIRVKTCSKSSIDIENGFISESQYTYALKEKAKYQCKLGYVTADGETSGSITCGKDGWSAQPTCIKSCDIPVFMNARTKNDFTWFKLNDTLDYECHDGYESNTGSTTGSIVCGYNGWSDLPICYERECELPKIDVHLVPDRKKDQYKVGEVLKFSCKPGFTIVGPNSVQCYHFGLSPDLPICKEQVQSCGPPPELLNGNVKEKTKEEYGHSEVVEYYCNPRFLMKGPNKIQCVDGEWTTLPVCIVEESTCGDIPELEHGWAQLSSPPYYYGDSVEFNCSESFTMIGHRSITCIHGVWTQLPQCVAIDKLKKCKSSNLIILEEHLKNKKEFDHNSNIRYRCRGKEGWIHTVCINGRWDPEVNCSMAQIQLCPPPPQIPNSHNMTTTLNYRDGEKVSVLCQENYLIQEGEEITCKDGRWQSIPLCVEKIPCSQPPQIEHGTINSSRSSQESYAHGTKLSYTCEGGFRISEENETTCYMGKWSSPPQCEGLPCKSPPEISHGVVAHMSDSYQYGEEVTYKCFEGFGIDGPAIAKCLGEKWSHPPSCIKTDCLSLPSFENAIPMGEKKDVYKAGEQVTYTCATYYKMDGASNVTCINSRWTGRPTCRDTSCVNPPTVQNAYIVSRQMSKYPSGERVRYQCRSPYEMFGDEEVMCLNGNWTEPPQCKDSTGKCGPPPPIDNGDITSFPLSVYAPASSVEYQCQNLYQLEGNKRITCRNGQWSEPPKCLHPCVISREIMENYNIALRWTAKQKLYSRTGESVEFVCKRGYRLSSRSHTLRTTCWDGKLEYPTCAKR

Row | Substance | IC50 (C3b (human)) | IC50 (complement C5 [1]) | IC50 (complement C3b [2]) | IC50 (complement C5 [3]) | IC50 (complement C3b [4])
1 | MFHR1^I62 (FHR1_(1-2):FH1-4:FH_(19-20), isoleucine at position 193 = position 62 of factor H) (from UniProt Q03591 19-143; P08603 18-264; P08603 1107-1231) | 7.8 nM |  |  |  | 
2 | MFHR1^I62 (FHR1_(1-2):FH1-4:FH_(19-20), variant with isoleucine at position 62 of factor H) |  | 52.5 nM | 16.1 nM | 26.8 nM | 4.7 nM
3 | MFHR1^V62 (FHR1_(1-2):FH1-4:FH_(19-20)) (from UniProt Q03591 19-143; P08603 18-264; P08603 1107-1231) | 9.4 nM |  |  |  | 
4 | MFHR1^V62 (FHR1_(1-2):FH1-4:FH_(19-20), valine at position 62 of factor H) |  |  |  | 26.8 nM | 6.32 nM
5 | human factor H, plasma-derived (hFH) (from UniProt P08603 19-1231) (natural protein) | 3.8 nM |  |  |  | 
